Bridge positions count the residues as written; N and C are the ends. Ends that are not written are not given here.
These binders were tested against αMβ2 integrin (Mac-1) (UniProt P11215 17-1152; P05107 23-769) (assay: phage display biopanning on coated αMβ2 integrin).
Procedure: The αMβ₂ integrin was purified by antibody affinity chromatography from buffy coats obtained from Finnish Red Cross Blood Transfusion Service as described previously (Li et al., 1995). Integrin diluted in Tris-buffered saline (TBS)/1 mM MnCl₂ was coated onto microtiter wells overnight at 4° C. using […] per well in the first biopanning and 100, 10 and 1 ng in subsequent pannings. The wells were blocked with 5% BSA in TBS for 1 h at 22° C. and then washed five times with TBS. Biopanning was performed using CX₇C and CX₉GC phage peptide libraries essentially as described (Koivunen et al., 1994). The construction of libraries was modified so that the single-stranded DNA encoding degenerate sequences was converted into a double-stranded form using 5 cycles of PCR with only the reverse primer and then 11 cycles with both the reverse and forward primer. A total of 6 μg of the double-stranded oligonucleotide was purified using QIAGEN PCR purification kit and ligated with 42 μg of the Fuse5 phage vector. The number of recombinants in the libraries was more than 10⁹. Phage binding, elution and subsequent amplification in E. coli were repeated five times, and after each panning bacterial colonies were picked up and stored in a 10 μl volume of TBS in microtiter wells at −20° C. For direct colony sequencing, […] aliquots of the thawed samples were subjected to PCR with 10 pmol each of the forward primer 5′ […] 3′ and the reverse primer 5′[…] 3′. The PCR conditions were 92° C. for 30 s, 60° C. for 30 s, and 72° C. for 60 s, and the cycle number was 35. One μl aliquot of the PCR reaction was taken for sequencing using 15 pmol of either one of the primers and analyzed on an ABI 310 apparatus (PE Applied Biosystems, Foster City, Calif.).
After the fifh round of selection, the CX₇C library gave a 600-fold enrichment and CX₉GC a 1000-fold enrichment of phage bound to the integrin in comparison to background. […] Four of them contained the LLG tripeptide motif.

Binder | binding result
CWSMELLGC [phage displaying CWSMELLGC] | binds
CWHKDLLGC [phage displaying CWHKDLLGC] | binds
CPPDLFWYC [phage displaying CPPDLFWYC] | binds
CPCFLLGCC [phage displaying CPCFLLGCC (LLG-C4)] | binds
CWKLLGSEEEC [phage displaying CWKLLGSEEEC] | binds

The binders below were run against T1, αLβ2 integrin on Jurkat cells (UniProt P20701 26-1170; P05107 23-769, limits assumed) (assay: inhibition of αLβ2-mediated Jurkat cell adhesion to ICAM-1-Fc (coated directly or captured via protein A), Crystal Violet staining).
T1 construct: whole, on cells

Binder | IC50 [µM]
CPCFLLGCC (disulfide 1-8, 3-9, also called LLG-C4 peptide; LLG-C4 nonapeptide) [C(1-8;3-9) peptide] | ~80

From US20040259798A1 (KARYON CTT, published 2004)
